Reference: PMC9588060

What was measured:
hVEGFA165 (human) = hVEGFA165 (human) (UniProt P15692); test: ELISA; settings: Fc fusion
PlGF = PlGF (UniProt P49763); test: ELISA; settings: Fc fusion
[1] = target: PD-L1 (coated in the ELISA) (not stated (human or mouse PD-L1 coated)) (UniProt Q9NZQ7); test: ELISA; human PD-L1
[2] = target: PD-L1 (coated in the ELISA) (not stated (human or mouse PD-L1 coated)) (UniProt Q9NZQ7); test: ELISA; mouse PD-L1; settings: Fc fusion

Sequence of Ate-Grab (P17948 whole entry, looked up): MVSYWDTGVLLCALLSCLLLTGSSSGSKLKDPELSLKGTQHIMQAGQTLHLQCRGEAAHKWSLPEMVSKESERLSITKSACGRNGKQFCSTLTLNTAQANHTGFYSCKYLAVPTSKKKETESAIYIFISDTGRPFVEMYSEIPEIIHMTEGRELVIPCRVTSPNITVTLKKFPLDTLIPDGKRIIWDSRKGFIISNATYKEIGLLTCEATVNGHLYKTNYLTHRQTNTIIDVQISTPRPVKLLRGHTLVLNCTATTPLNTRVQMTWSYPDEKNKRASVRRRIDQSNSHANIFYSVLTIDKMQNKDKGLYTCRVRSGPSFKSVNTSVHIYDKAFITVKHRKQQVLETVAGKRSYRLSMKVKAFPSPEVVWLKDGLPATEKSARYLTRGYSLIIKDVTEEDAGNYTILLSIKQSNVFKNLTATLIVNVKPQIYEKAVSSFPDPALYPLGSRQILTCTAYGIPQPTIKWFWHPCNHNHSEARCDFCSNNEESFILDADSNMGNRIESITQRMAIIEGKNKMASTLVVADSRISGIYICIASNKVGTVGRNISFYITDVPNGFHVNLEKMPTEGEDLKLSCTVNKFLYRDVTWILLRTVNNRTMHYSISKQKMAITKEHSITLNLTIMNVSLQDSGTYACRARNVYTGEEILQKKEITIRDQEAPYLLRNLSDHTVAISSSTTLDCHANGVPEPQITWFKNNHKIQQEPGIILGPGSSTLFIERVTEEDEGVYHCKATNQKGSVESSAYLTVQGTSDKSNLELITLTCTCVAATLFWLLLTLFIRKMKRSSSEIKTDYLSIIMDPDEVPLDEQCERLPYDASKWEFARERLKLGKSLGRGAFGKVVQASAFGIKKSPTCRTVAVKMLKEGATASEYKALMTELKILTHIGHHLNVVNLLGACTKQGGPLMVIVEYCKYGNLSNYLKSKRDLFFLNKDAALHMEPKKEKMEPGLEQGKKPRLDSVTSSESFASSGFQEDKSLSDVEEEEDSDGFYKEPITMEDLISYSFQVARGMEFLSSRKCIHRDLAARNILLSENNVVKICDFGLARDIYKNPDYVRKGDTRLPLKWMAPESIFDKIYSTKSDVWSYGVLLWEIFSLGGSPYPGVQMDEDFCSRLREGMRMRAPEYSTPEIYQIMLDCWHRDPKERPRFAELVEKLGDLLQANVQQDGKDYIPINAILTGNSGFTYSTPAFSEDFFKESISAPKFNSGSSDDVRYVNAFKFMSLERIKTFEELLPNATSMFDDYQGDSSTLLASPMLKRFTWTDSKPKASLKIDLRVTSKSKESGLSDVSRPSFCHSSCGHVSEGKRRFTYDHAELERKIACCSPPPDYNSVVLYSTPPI
Sequence of PD-L1 (coated in the ELISA) (not stated (human or mouse PD-L1 coated)) (Q9NZQ7 19-290): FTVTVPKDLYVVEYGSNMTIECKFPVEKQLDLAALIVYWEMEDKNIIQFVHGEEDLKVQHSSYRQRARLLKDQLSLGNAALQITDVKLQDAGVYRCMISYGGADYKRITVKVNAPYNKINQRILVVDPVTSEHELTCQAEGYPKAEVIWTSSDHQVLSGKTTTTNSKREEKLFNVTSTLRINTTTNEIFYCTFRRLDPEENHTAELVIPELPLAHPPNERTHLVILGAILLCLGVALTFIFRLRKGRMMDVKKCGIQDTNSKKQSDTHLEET
Sequence of VEGF-Grab (P17948 whole entry, looked up): as the sequence (P17948 whole entry, looked up) above
Sequence of PlGF (P49763 19-221): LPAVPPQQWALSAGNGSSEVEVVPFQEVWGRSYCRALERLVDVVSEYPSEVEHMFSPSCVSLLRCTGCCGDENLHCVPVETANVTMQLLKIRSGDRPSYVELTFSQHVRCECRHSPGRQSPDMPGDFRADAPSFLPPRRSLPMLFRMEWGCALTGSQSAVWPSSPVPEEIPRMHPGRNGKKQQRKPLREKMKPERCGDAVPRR
Sequence of hVEGFA165 (human) (P15692 other isoform, or with tags, fused parts or gaps): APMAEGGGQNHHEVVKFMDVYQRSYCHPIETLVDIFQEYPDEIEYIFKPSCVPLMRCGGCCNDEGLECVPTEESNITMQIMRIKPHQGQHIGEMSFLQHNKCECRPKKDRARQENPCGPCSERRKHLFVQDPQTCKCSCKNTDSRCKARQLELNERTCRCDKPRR

Row | EC50 (hVEGFA165 (human)) | EC50 (PlGF) | EC50 ([1]; Fc fusion) | EC50 [2] | EC50 [1] | Substance
1 | 0.652 nM | 0.929 nM | 0.222 nM | 0.374 nM |  | Ate-Grab (from UniProt P17948)
2 | 0.686 nM | 0.619 nM |  |  |  | VEGF-Grab (from UniProt P17948)
3 |  |  |  |  | 0.107 nM | Atezolizumab
